{"source": "paper PMC9975939", "key": {"[1]": {"biological_target": "untagged NDP52 C18, 153, 163, 321S mutant (human) (UniProt Q13137)", "experiment": "native gel or EMSA; blue native PAGE (4–16% NativePAGE gel, Coomassie G-250) of recombinant NDP52 WT and Mut, immunoblot"}, "FIP200-GFP": {"biological_target": "FIP200-GFP", "experiment": "bead recruitment assay (confocal imaging of FIP200-GFP on beads)", "conditions": "glutathione Sepharose beads coated with GST-4xUb, incubated with untagged NDP52 and FIP200-GFP; read off a plot"}, "[2]": {"biological_target": "His-Flag-NDP52 C18, 153, 163, 321S (human) (UniProt Q13137)", "experiment": "native gel or EMSA; blue native PAGE of lysates (30 μg; 20 mM Bis-Tris pH 7.2, 40 mM NaCl, 10% glycerol, 0.5% NP-40) of HeLa PentaKO cells stably expressing NDP52 WT or Mut, immunoblot"}}}
{"substance": "untagged NDP52 C18, 153, 163, 321S mutant (from UniProt Q13137 1-446) (natural protein)", "values": [{"measurement": "stoichiometry N", "setting": "[1]", "result": 2}]}
{"substance": "untagged NDP52 wild type mutant C18S; C153S; C163S; C321S [human] / FIP200-GFP [not stated] chain 1 C18S, chain 1 C153S, chain 1 C163S, chain 1 C321S", "values": [{"measurement": "percent of parent", "setting": "FIP200-GFP", "result": 93, "unit": "%"}]}
{"substance": "His-Flag-NDP52 C18, 153, 163, 321S (from UniProt Q13137 1-446) (natural protein)", "values": [{"measurement": "stoichiometry N", "setting": "[2]", "result": 2}]}
